Biological target: SARS-CoV-2 Spike (RBD)-Fc (SARS-CoV-2, UniProt P0DTC2)
Test: ELISA

EDLFYQ [wild type Spike S1-Interacting Domain of ACE2 Receptor (SPIDAR) peptide]: binds.

Reference: publication PMC8664124 (Journal of immunology (Baltimore, Md. : 1950), 2021)
